Here are results for two molecules from patent US20220041718A1 (AUTOLUS, published 2022).

Experiment [1] concerns the target T1, Recombinant purified TRBC2 (human, UniProt A0A5B9 1-129, limits assumed).
T1 construct: Construct not described (may be a soluble TCR carrying TRBC2); also called TCR beta constant region 2; soluble recombinant biotinylated TRBC2
Kind of experiment: SPR (Biacore T200), captured anti-TRBC2 binder, recombinant TRBC2 as analyte; half-life of dissociation, t1/2 = ln 2/kd. From the text:
(§1) To test 1:1 binding interaction of the anti-TRBC2 scFv, a series S CM5 sensor chip was immobilised via amine coupling, with an anti-human Fc capture antibody to a density of 9000-10000 RU, using a Biacore T200 instrument. HBS-P+ buffer was used as running buffer in all experimental conditions. The test anti-TRBC2 antibody was captured on flow 4 to a density of 200-250 RU. Recombinant purified TRBC1 or TRBC2 at known concentrations were used as the ‘analyte’ and injected over the respective flow cells with 150s contact time and 300s dissociation at 30 μl/minute of flow rate. Flow cell 1 was unmodified and used for reference subtraction. A ‘0 concentration’ sensorgram of buffer alone was used as a double reference subtraction to factor for drift. Data were fit to a 1:1 Langmuir binding model. Since a capture system was used, a local Rₘₐₓ parameter was used for the data fitting in each case. Off-rate value was determined, and half-life calculated according to: t1/2=ln 2/kd.
On the technique in general: In SPR one partner is held on a chip, and binding of the other changes the refractive index at the surface.

Experiment [2] addresses T1, Recombinant purified TRBC2. The experiment is described as follows: SPR, 1:1 interaction, antibody captured, TRBC as analyte; t1/2=ln 2/kd.
From the text: as §1

The target of experiment [3] is T1, Recombinant purified TRBC2. The experiment is described as follows: SPR, biotinylated TRBC captured on CAP chip, antibody injected; t1/2=ln 2/kd. The procedure:
(§2) To test multivalent interaction of scFv-Fc and scFv-COMP antibody formats, a series S CAP chip was immobilised with Biotin capture reagent to 2500-5000 RU. Soluble recombinant biotinylated TRBC1 and TRBC2 were captured on flow cells 3, in independent experimental cycles, to a density of 90-110 RU. Purified anti-TRBC2 scFv-Fc or scFv-COMP antibodies were injected over the flow cell with 150s contact time and 300s dissociation at 30 μl/minute of flow rate. On flow cell 1, biotinylated protein was omitted and used for reference subtraction. A ‘0 concentration’ sensorgram of buffer alone was used as a double reference subtraction to factor for drift. Data were fit to a 1:1 Langmuir binding model. Since a capture system was used, a local Rmax parameter was used for the data fitting in each case. Off-rate value was determined, and half-life calculated according to: t1/2=ln 2/kd.

The target of experiment [4] is T1, Recombinant purified TRBC2. Kind of experiment: SPR (Biacore T200), biotinylated TRBC2 captured on a CAP chip, scFv-COMP injected; half-life of dissociation, t1/2 = ln 2/kd [cont.) C]. The procedure: as §2

T1 sequence (A0A5B9 1-129 limits assumed): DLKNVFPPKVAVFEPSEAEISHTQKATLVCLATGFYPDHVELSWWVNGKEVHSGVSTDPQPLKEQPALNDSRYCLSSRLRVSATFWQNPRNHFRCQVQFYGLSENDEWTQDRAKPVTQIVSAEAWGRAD

B1: anti-TRBC2 scFv (T28K, Y32F, A100N, Y102L, N103M in VH; N35R in VL of hJovi-1) (scFv)
scFv: QVQLVQSGAEVKKPGASVKVSCKASGYKFTGFVMHWVRQAPGQGLEWMGFINPYNDDIQSNERFRGRVTMTRDTSISTAYMELSRLRSDDTAVYYCARGNGLMFDGAYRFFDFWGQGTMVTVSSGGGGSGGGGSGGGGSDIVMTQSPLSLPVTPGEPASISCRSSQRLVHSNGRTYLHWYLQKPGQSPRLLIYRVSNRFPGVPDRFSGSGSGTDFTLKISRVEAEDVGVYYCSQSTHVPYTFGQGTKLEIKR
notes: the format in the assay is unsure
Take B1: the t1/2 in experiment [1] turned out to be 0.138 min. In addition, in experiment [2], the half-life came to 0.133 min.

B2: anti-TRBC2 scFv-COMP (T28K, Y32F, A100N, Y102L, N103M in VH; N35R in VL of hJovi-1) (other)
chain: QVQLVQSGAEVKKPGASVKVSCKASGYKFTGFVMHWVRQAPGQGLEWMGFINPYNDDIQSNERFRGRVTMTRDTSISTAYMELSRLRSDDTAVYYCARGNGLMFDGAYRFFDFWGQGTMVTVSSGGGGSGGGGSGGGGSDIVMTQSPLSLPVTPGEPASISCRSSQRLVHSNGRTYLHWYLQKPGQSPRLLIYRVSNRFPGVPDRFSGSGSGTDFTLKISRVEAEDVGVYYCSQSTHVPYTFGQGTKLEIKRSGGGGSGGGGSGGGGSAGSDLGPQMLRELQETNAALQDVRELLRQQVREITFLKNTVMECDACGSGKKDPKSGGGGSYPYDVPDYA
notes: scFv fused to the COMP coiled-coil
B2: in experiment [3], the half-life turned out to be 7.3 min. In experiment [4], the t1/2 was 7.26 min.

A word on the half-life: it is the time needed for the level to fall by half in the phase considered.
